In paper PMC10495429, “Discovery of L-threonine transaldolases for enhanced biosynthesis of beta-hydroxylated amino acids” (Communications Biology, 2023):

Columns and labels:
PbTTA = tested on: T1, PbTTA; assay: TTA-ADH coupled assay (NADH depletion at […] nm), non-linear regression; format: biochemical; settings: 1 mM phenylacetaldehyde (non-saturating), PLP, MgCl2, phosphate pH 7.5, 30 °C; read-out: apparent KM
T1 construct: N-terminal hexahistidine-SUMO tag with TEV site kept (screen done with SUMO fusion intact), E. coli BL21

C[C@@H](O)[C@H](N)C(=O)O = assay: purified protein; settings: 1 mM phenylacetaldehyde (non-saturating), PLP, MgCl2, phosphate pH 7.5, 30 °C
purified protein = substrate: C[C@@H](O)[C@H](N)C(=O)O; assay: purified protein; format: biochemical, Pseudomonas fluorescens; settings: 1 mM phenylacetaldehyde (non-saturating), PLP, MgCl2, phosphate pH 7.5, 30 °C

## C[C@@H](O)[C@H](N)C(=O)O [L-Thr]
PbTTA
  Km: 10.9 mM

## PiTTA (Pseudomonas sp. Irchel s3a18)
C[C@@H](O)[C@H](N)C(=O)O
  Km: 35.8 (21.0, 41.5) mM
  kcat: 276.4 (260, 294.7) min-1

## s-KaTTA (Kitasatospora aureofaciens)
C[C@@H](O)[C@H](N)C(=O)O
  Km: 19.1 mM

B1: ObiH (Pseudomonas fluorescens) (protein)
chain: MSNVKQQTAQIVDWLSSTLGKDHQYREDSLSLTANENYPSALVRLTSGSTAGAFYHCSFPFEVPAGEWHFPEPGHMNAIADQVRDLGKTLIGAQAFDWRPNGGSTAEQALMLAACKPGEGFVHFAHRDGGHFALESLAQKMGIEIFHLPVNPTSLLIDVAKLDEMVRRNPHIRIVILDQSFKLRWQPLAEIRSVLPDSCTLTYDMSHDGGLIMGGVFDSPLSCGADIVHGNTHKTIPGPQKGYIGFKSAQHPLLVDTSLWVCPHLQSNCHAEQLPPMWVAFKEMELFGRDYAAQIVSNAKTLARHLHELGLDVTGESFGFTQTHQVHFAVGDLQKALDLCVNSLHAGGIRSTNIEIPGKPGVHGIRLGVQAMTRRGMKEKDFEVVARFIADLYFKKTEPAKVAQQIKEFLQAFPLAPLAYSFDNYLDEELLAAVYQGAQR
notes: N-terminal hexahistidine tag, expressed in E. coli BL21, codon-optimised gene; tag kept
Purified protein
  Km: 29.5 mM
